Data on 2 molecules can be found in publication PMC11169542, “A probe for NIR-II imaging and multimodal analysis of early Alzheimer’s disease by targeting CTGF” (Nature Communications, 2024).

Ends that are not written are not given here.

This test deals with T1, recombinant Human CTGF protein (connective tissue growth factor) (human, UniProt P29279 27-349).
T1 construct: connective tissue growth factor (CTGF), human, recombinant; source: bought: Abcam, Cat#ab283457
T1 sequence (looked up): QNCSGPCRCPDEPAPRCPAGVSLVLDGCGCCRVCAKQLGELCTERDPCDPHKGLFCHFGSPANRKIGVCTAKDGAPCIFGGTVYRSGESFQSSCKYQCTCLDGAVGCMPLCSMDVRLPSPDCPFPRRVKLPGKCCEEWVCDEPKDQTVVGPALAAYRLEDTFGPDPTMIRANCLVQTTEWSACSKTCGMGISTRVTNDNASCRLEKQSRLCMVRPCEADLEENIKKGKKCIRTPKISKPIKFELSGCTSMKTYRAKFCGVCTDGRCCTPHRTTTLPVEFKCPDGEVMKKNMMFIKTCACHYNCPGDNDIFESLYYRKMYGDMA
Put plainly: SPR; BIAcore 8K+; recombinant human CTGF immobilised on a CM5 chip by amine coupling; eluent PBS with 0.005% Tween 20; DAG 0.5-16 μM or DGC 0.01-0.16 μM; 25 °C. The note with it: both partners purified. (In SPR one partner is held on a chip, and binding of the other changes the refractive index at the surface.)

B1: cyclic peptide Cys-Asp-Ala-Gly-Arg-Lys-Gln-Lys-Cys (DAG) (peptide)
peptide: CDAGRKQKC
modifications: also: cyclic peptide, ring not given here
notes: CTGF-targeting peptide DAG; also called free DAG; DAG peptide; source: synthetic peptide (solid-phase method, Beijing Scilight Biotechnology LLC, purity 95%)
As for B1, the Kd worked out at 22.3 µM.

B2: DGC probe (peptide-coated gold nanocluster, Au26DAG8) (other)
peptide: CDAGRKQKC
modifications: also: Au26 nanocluster bound via Cys sulfhydryl Au-S bonds, cyclic, ring closure not given here
notes: DAG peptide, eight copies on one Au26 gold nanocluster; One Au26 gold nanocluster coated by eight DAG peptides (by MALDI-TOF-MS); also called CTGF-targeting peptide-coated gold nanocluster; source: synthesised from DAG peptide and HAuCl4 at 55 °C, purified by ultrafiltration (MWCO 3 kDa)
For B2, the equilibrium dissociation constant (Kd) was 0.0219 µM.

Broadly, the Kd is the constant that tells how readily two partners part at equilibrium.
